Assay results taken from IntAct's records for PubMed 24583011.

How the values were obtained:
sv2c_rat Sv2c [1] = target: T1, sv2c_rat Sv2c (UniProt Q9Z2I6)
T1 sequence: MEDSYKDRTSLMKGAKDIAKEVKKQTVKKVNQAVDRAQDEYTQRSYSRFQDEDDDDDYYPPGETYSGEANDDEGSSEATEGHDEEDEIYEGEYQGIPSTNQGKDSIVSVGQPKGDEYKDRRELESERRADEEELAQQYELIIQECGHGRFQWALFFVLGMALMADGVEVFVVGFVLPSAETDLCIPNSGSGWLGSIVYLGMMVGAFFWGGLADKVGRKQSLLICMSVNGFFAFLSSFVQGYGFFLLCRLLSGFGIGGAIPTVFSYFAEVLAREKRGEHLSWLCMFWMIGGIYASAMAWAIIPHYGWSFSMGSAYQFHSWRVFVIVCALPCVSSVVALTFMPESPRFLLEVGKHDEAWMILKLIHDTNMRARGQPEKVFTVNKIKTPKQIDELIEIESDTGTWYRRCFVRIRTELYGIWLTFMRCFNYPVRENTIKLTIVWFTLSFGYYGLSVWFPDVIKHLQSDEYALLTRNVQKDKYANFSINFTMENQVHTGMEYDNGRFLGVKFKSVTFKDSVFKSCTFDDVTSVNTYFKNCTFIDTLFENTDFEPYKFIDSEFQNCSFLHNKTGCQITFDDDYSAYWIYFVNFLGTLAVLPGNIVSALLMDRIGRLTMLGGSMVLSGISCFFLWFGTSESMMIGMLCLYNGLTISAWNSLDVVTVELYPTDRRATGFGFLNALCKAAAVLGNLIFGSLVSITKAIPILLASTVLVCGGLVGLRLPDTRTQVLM

sv2c_rat Sv2c [2] = target: T1, sv2c_rat Sv2c; remark: listed apart in the source
sv2c_rat Sv2c [3] = target: T1, sv2c_rat Sv2c; remark: listed apart in the source
sv2c_rat Sv2c [4] = target: T1, sv2c_rat Sv2c; remark: listed apart in the source
sv2c_rat Sv2c [5] = target: T1, sv2c_rat Sv2c; remark: listed apart in the source
sv2c_rat Sv2c [6] = target: T1, sv2c_rat Sv2c; remark: listed apart in the source
sv2c_rat Sv2c [7] = target: T1, sv2c_rat Sv2c; remark: listed apart in the source
sv2c_rat Sv2c [8] = target: T1, sv2c_rat Sv2c; remark: listed apart in the source
sv2c_rat Sv2c [9] = target: T1, sv2c_rat Sv2c; remark: listed apart in the source
sv2c_rat Sv2c [10] = target: T1, sv2c_rat Sv2c; remark: listed apart in the source

“Botulinum neurotoxin type A (Clostridium botulinum) (from UniProt P0DPI0) D1108R” was tested, and the “effect of a mutation on the interaction” value (sv2c_rat Sv2c [1]) was “decreasing interaction”.

For “Botulinum neurotoxin type A (Clostridium botulinum) (from UniProt P0DPI0) G1292R”, the “effect of a mutation on the interaction” value (sv2c_rat Sv2c [2]) was “decreasing interaction”.

For “Botulinum neurotoxin type A (Clostridium botulinum) (from UniProt P0DPI0) H1064G”, the “effect of a mutation on the interaction” value (sv2c_rat Sv2c [3]) was “decreasing interaction”.

With “Botulinum neurotoxin type A (Clostridium botulinum) (from UniProt P0DPI0) K1163E” the “effect of a mutation on the interaction” value (sv2c_rat Sv2c [4]) was “decreasing interaction”.

With “Botulinum neurotoxin type A (Clostridium botulinum) (from UniProt P0DPI0) N905Y” the “effect of a mutation on the interaction” value (sv2c_rat Sv2c [5]) was “decreasing interaction”.

With “Botulinum neurotoxin type A (Clostridium botulinum) (from UniProt P0DPI0) N1188A” the “effect of a mutation on the interaction” value (sv2c_rat Sv2c [6]) was “decreasing interaction”.

For “Botulinum neurotoxin type A (Clostridium botulinum) (from UniProt P0DPI0) R1131E”, the “effect of a mutation on the interaction” value (sv2c_rat Sv2c [7]) was “decreasing interaction”.

“Botulinum neurotoxin type A (Clostridium botulinum) (from UniProt P0DPI0) R1156M” was tested, and the “effect of a mutation on the interaction” value (sv2c_rat Sv2c [8]) was “decreasing interaction”.

With “Botulinum neurotoxin type A (Clostridium botulinum) (from UniProt P0DPI0) T1063P” the “effect of a mutation on the interaction” value (sv2c_rat Sv2c [9]) was “decreasing interaction”.

In the case of “Botulinum neurotoxin type A (Clostridium botulinum) (from UniProt P0DPI0) V1287E”, the “effect of a mutation on the interaction” value (sv2c_rat Sv2c [10]) is reported as “decreasing interaction”.
